This note sets out measurements from the supplement of paper PMC10567573.

B1: FAM189A2 (parent)
chain: CALNALTTTVCLVAAALRYLQIFA
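Note: lentivirally expressed fusions sorted by FACS into six bins by GFP to DsRed ratio, PSI derived from sequencing read proportions per bin multiplied by bin number.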

The data set covers variants of B1. Put plainly: protein stability index of a GFP-peptide fusion (GPS, HEK-293T) (PSI 1-6); higher = more stable. The following applies: c terminus: a fixed tail appended.
Turning to CALNALTTYVCLVAAALRYLQIFA, the protein stability index is 2.69.
Next, CALNALTTTVLLVAAALRYLQIFA: 3.18.
Next, CALNALTTTVTLVAAALRYLQIFA: 2.74; CALNALTTTVMLVAAALRYLQIFA: 2.97.
In the case of CALNALTTTVYLVAAALRYLQIFA, the protein stability index was determined as 3.58.
In the case of CALNALTTTVNLVAAALRYLQIFA, the protein stability index stood at 1.91.
Regarding CALNALTTTVPLVAAALRYLQIFA, the protein stability index was 2.3.
Consider CALNALTTTVFLVAAALRYLQIFA, for which the protein stability index turned out to be 3.1.
The figure for CALNALTTTVSLVAAALRYLQIFA is 2.18; for CALNALTTTVALVAAALRYLQIFA it is 3.95.
The figure for CALNALTTTVDLVAAALRYLQIFA is 2.75; for CALNALTTTVHLVAAALRYLQIFA it is 1.63; for CALNALTTTVQLVAAALRYLQIFA it is 1.41.
Next, CALNALTTTVKLVAAALRYLQIFA: 3.55; CALNALTTTVRLVAAALRYLQIFA: 3.69; CALNALTTTVILVAAALRYLQIFA: 4.44.
Consider CALNALTTTVCLVAAWLRYLQIFA, for which the protein stability index is 1.55.
Next, CALNALTTTVCLVAAVLRYLQIFA: 3.33; CALNALTTTVCLVAAILRYLQIFA: 4.22.
For the variant CALNALTTTVCLVAADLRYLQIFA, the protein stability index was 3.52.
Next, CALNALTTTVCLVAASLRYLQIFA: 2.97.
The figure for CALNALTTTVCLVAAFLRYLQIFA is 2.55; for CALNALTTTVCLVAAHLRYLQIFA it is 3.78; for CALNALTTTVCLVAACLRYLQIFA it is 4.04.
Take CALNALTTTVCLVAARLRYLQIFA: the protein stability index stood at 3.06.
For CALNALTTTVCLVAANLRYLQIFA, the protein stability index turned out to be 2.1.
Next, CALNALTTTVCLVAAPLRYLQIFA: 2.79; CALNALTTTVCLVAALLRYLQIFA: 3.09; CALNALTTTVCLVAAYLRYLQIFA: 2.27.
As to CALNALTTTVCLVAAKLRYLQIFA, the protein stability index turned out to be 4.22.
Take CALNALTTTVCLVAATLRYLQIFA: the protein stability index came to 1.94.
Next, CALNALTTTVCLVAAELRYLQIFA: 3.27.
Next, CALNALTTTVCLVAAALQYLQIFA: 2.72.
Regarding CALNALTTTVCLVAAALDYLQIFA, the protein stability index was 3.02.
With CALNALTTTVCLVAAALMYLQIFA, the protein stability index was 1.38.
Next, CALNALTTTVCLVAAALCYLQIFA: 3.91; CALNALTTTVCLVAAALEYLQIFA: 3.6.
In the case of CALNALTTTVCLVAAALGYLQIFA, the protein stability index was found to be 3.25.
With CALNALTTTVCLVAAALIYLQIFA, the protein stability index is 3.84.
The figure for CALNALTTTVCLVAAALPYLQIFA is 1.82.
The figure for CALNALTTTVCLVAAALWYLQIFA is 2.99; for CALNALTTTVCLVAAALYYLQIFA it is 3.89.
In the case of CALNALTTTVCLVAAALKYLQIFA, the protein stability index stood at 3.85.
Next, CALNALTTTVCLVAAALVYLQIFA: 3.16; CALNALTTTVCLVAAALTYLQIFA: 2.38.
Next, CALNALTTTVCLVAAALLYLQIFA: 2.98; CALNALTTTVCLVAAALNYLQIFA: 3.9; CALNALTTTVCLVNAALRYLQIFA: 3.17.
Next, CALNALTTTVCLVSAALRYLQIFA: 4.79; CALNALTTTVCLVPAALRYLQIFA: 3.27; CALNALTTTVCLVVAALRYLQIFA: 1.9.
Take CALNALTTTVCLVGAALRYLQIFA: the protein stability index came out at 2.74.
Next, CALNALTTTVCLVCAALRYLQIFA: 4.5.
CALNALTTTVCLVKAALRYLQIFA: the protein stability index is 2.69.
Next, CALNALTTTVCLVFAALRYLQIFA: 3.14.
Next, CALNALTTTVCLVTAALRYLQIFA: 3.07; CALNALTTTVCLVWAALRYLQIFA: 1.93; CALNALTTTVCLVHAALRYLQIFA: 4.41.
The figure for CALNALTTTVCLVLAALRYLQIFA is 3.6.
On to CALNALTTTVCLVRAALRYLQIFA, for which the protein stability index stood at 2.23.
Consider CALNALTTTVCLVMAALRYLQIFA, for which the protein stability index came out at 3.17.
CALNALTTTVCLVQAALRYLQIFA: the protein stability index was determined as 2.2.
As to CALNALTTTVCLVIAALRYLQIFA, the protein stability index came to 3.7.
The figure for CALNALTTTVCLVEAALRYLQIFA is 3.46.
As for CALNALTTTVCLVAAALRYLNIFA, the protein stability index was found to be 2.02.
Next, CALNALTTTVCLVAAALRYLSIFA: 1.64; CALNALTTTVCLVAAALRYLRIFA: 1.72.
For the variant CALNALTTTVCLVAAALRYLKIFA, the protein stability index turned out to be 2.07.
In the case of CALNALTTTVCLVAAALRYLIIFA, the protein stability index is 2.65.
Regarding CALNALTTTVCLVAAALRYLEIFA, the protein stability index turned out to be 3.35.
The figure for CALNALTTTVCLVAAALRYLFIFA is 2.15; for CALNALTTTVCLVAAALRYLWIFA it is 2.74.
For the variant CALNALTTTVCLVAAALRYLLIFA, the protein stability index came out at 3.19.
Turning to CALNALTTTVCLVAAALRYLGIFA, the protein stability index amounted to 2.9.
As for CALNALTTTVCLVAAALRYLCIFA, the protein stability index worked out at 2.75.
Next, CALNALTTTVCLVAAALRYLVIFA: 2.12; CALNALTTTVCLVAAALRYLAIFA: 3.09; CALNALTTTVCLVAAALRYLTIFA: 3.12.
CALNALTTTVCLVAAALRYLYIFA: the protein stability index came out at 3.35.
Next, CALNALTTTFCLVAAALRYLQIFA: 1.53; CALNALTTTSCLVAAALRYLQIFA: 4.12; CALNALTTTWCLVAAALRYLQIFA: 2.05.
For CALNALTTTDCLVAAALRYLQIFA, the protein stability index is 4.46.
The figure for CALNALTTTRCLVAAALRYLQIFA is 1.62.
The figure for CALNALTTTCCLVAAALRYLQIFA is 1.42; for CALNALTTTHCLVAAALRYLQIFA it is 3.15; for CALNALTTTKCLVAAALRYLQIFA it is 2.08.
As for CALNALTTTGCLVAAALRYLQIFA, the protein stability index was determined as 4.6.
Next, CALNALTTTTCLVAAALRYLQIFA: 2.65.
Regarding CALNALTTTQCLVAAALRYLQIFA, the protein stability index was 4.03.
On to CALNALTTTPCLVAAALRYLQIFA, for which the protein stability index worked out at 2.12.
The figure for CALNALTTTICLVAAALRYLQIFA is 2.3; for CALNALTTTECLVAAALRYLQIFA it is 3.04.
Turning to CALNALTTTMCLVAAALRYLQIFA, the protein stability index was found to be 1.98.
